Measured values from US20230382997A1 (published 2023).
Blank lines part the entries; values can stand above or below the binder they belong to.

Legend:
Test in all cases: multimer staining
[1] = biological target: T1, MAGE A3 peptide on HLA-A*01:01 (human)
T1 peptide: EVDPIGHLY

[2] = biological target: T2, CT 83 peptide on HLA-B*44:02 (human)
T2 peptide: GEMSSNSTAL

[3] = biological target: T3, MAGE B2 peptide on HLA-A*02:01 (human)
T3 peptide: GVYDGEEHSV

[4] = biological target: T4, CT 83 peptide on HLA-A*02:01 (human)
T4 peptide: LLASSILCA

B1: TCR4 (TCR, V domains shown)
Valpha: AQSVAQPEDQVNVAEGNPLTVKCTYSVSGNPYLFWYVQYPNRGLQFLLKYITGDNLVKGSYGFEAEFNKSQTSFHLKKPSALVSDSALYFCAVRDAMGGSYIPTFGRGTSLIVHP
Vbeta: DGGITQSPKYLFRKEGQNVTLSCEQNLNHDAMYWYRQDPGQGLRLIYYSQIVNDFQKGDIAEGYSVSREKKESFPLTVTSAQKNPTAFYLCASSTGISEQFFGPGTRLTVL
binding result [1]: recognises

B2: TCR30 (TCR, V domains shown)
Valpha: EDKVVQSPLSLVVHEGDTVTLNCSYEVTNFRSLLWYKQEKKAPTFLFMLTSSGIEKKSGRLSSILDKKELFSILNITATQTGDSAVYLCAVVPDNTDKLIFGTGTRLQVFP
Vbeta: GAGVSQSPRYKVTKRGQDVALRCDPISGHVSLYWYRQALGQGPEFLTYFNYEAQQDKSGLPNDRFSAERPEGSISTLTIQRTEQRDSAMYRCASSWGGSNTGELFFGEGSRLTVL
binding result [2]: recognises

B3: TCR26 (TCR, V domains shown)
Valpha: GENVEQHPSTLSVQEGDSAVIKCTYSDSASNYFPWYKQELGKRPQLIIDIRSNVGEKKDQRIAVTLNKTAKHFSLHITETQPEDSAVYFCAASSLREGYSTLTFGKGTMLLVSP
Vbeta: NAGVTQTPKFRVLKTGQSMTLLCAQDMNHEYMYWYRQDPGMGLRLIHYSVGEGTTAKGEVPDGYNVSRLKKQNFLLGLESAAPSQTSVYFCASSSTDLNEQFFGPGTRLTVL
binding result [3]: recognises

B4: TCR28 (TCR, V domains shown)
Valpha: AQKITQTQPGMFVQEKEAVTLDCTYDTSDQSYGLFWYKQPSSGEMIFLIYQGSYDEQNATEGRYSLNFQKARKSANLVISASQLGDSAMYFCAMRGDPQGAQKLVFGQGTRLTINP
Vbeta: ETGVTQTPRHLVMGMTNKKSLKCEQHLGHNAMYWYKQSAKKPLELMFVYSLEERVENNSVPSRFSPECPNSSHLFLHLHTLQPEDSALYLCASSQGRGKNIQYFGAGTRLSVL
binding result [3]: recognises

B5: TCR22 (TCR, V domains shown)
Valpha: AQSVAQPEDQVNVAEGNPLTVKCTYSVSGNPYLFWYVQYPNRGLQFLLKYITGDNLVKGSYGFEAEFNKSQTSFHLKKPSALVSDSALYFCAVRDDNAGNMLTFGGGTRLMVKP
Vbeta: DTGVSQNPRHKITKRGQNVTFRCDPISEHNRLYWYRQTLGQGPEFLTYFQNEAQLEKSRLLSDRFSAERPKGSFSTLEIQRTEQGDSAMYLCASSLANTGELFFGEGSRLTVL
binding result [4]: recognises

B6: TCR18 (TCR, V domains shown)
Valpha: AQTVTQSQPEMSVQEAETVTLSCTYDTSESDYYLFWYKQPPSRQMILVIRQEAYKQQNATENRFSVNFQKAAKSFSLKISDSQLGDAAMYFCAYRDNFNKFYFGSGTKLNVKP
Vbeta: DSGVTQTPKHLITATGQRVTLRCSPRSGDLSVYWYQQSLDQGLQFLIQYYNGEERAKGNILERFSAQQFPDLHSELNLSSLELGDSALYFCASSGTGGAYNEQFFGPGTRLTVL
binding result [4]: recognises

B7: TCR33 (TCR, V domains shown)
Valpha: AQSVTQLGSHVSVSEGALVLLRCNYSSSVPPYLFWYVQYPNQGLQLLLKYTSAATLVKGINGFEAEFKKSETSFHLTKPSAHMSDAAEYFCAVSDSSYKLIFGSGTRLLVRP
Vbeta: DAGVIQSPRHEVTEMGQEVTLRCKPISGHDYLFWYRQTMMRGLELLIYFNNNVPIDDSGMPEDRFSAKMPNASFSTLKIQPSEPRDSAVYFCASQSGDTQYFGPGTRLTVL
binding result [2]: recognises

Results, then the binder that gave them:

binding result [4]: recognises
B8: TCR19 (TCR, V domains shown)
Valpha: AQKVTQAQTEISVVEKEDVTLDCVYETRDTTYYLFWYKQPPSGELVFLIRRNSFDEQNEISGRYSWNFQKSTSSFNFTITASQVVDSAVYFCALLSSGGYNKLIFGAGTRLAVHP
Vbeta: NAGVTQTPKFQVLKTGQSMTLQCAQDMNHEYMSWYRQDPGMGLRLIHYSVGAGITDQGEVPNGYNVSRSTTEDFPLRLLSAAPSQTSVYFCASSYLSPAAGFSYEQYFGPGTRLTVT

binding result [1]: recognises
B9: TCR346 (TCR)
alpha TRAV29DV5 TRAJ48 CDR3: CAARDISNFGNEKLTF
Vbeta: GAVVSQHPSRVICKSGTSVKIECRSLDFQATTMFWYRQFPKQSLMLMATSNEGSKATYEQGVEKDKFLINHASLTLSTLTVTSAHPEDSSFYICSARDHTSGTYEQYFGPGTRLTVT

binding result [4]: recognises
B10: TCR23 (TCR, V domains shown)
Valpha: LAKTTQPISMDSYEGQEVNITCSHNNIATNDYITWYQQFPSQGPRFIIQGYKTKVTNEVASLFIPADRKSSTLSLPRVSLSDTAVYYCLVGDIPSVDGGFKTIFGAGTRLFVKA
Vbeta: EAQVTQNPRYLITVTGKKLTVTCSQNMNHEYMSWYRQDPGLGLRQIYYSMNVEVTDKGDVPEGYKVSRKEKRNFPLILESPSPNQTSLYFCASSTSLELDQPQHFGDGTRLSIL

binding result [2]: recognises
B11: TCR29 (TCR, V domains shown)
Valpha: AQKVTQAQTEISVVEKEDVTLDCVYETRDTTYYLFWYKQPPSGELVFLIRRNSFDEQNEISGRYSWNFQKSTSSFNFTITASQVVDSAVYFCALSEAWGNAGNMLTFGGGTRLMVKP
Vbeta: GAGVSQSPRYKVTKRGQDVALRCDPISGHVSLYWYRQALGQGPEFLTYFNYEAQQDKSGLPNDRFSAERPEGSISTLTIQRTEQRDSAMYRCASSPGQQNTEAFFGQGTRLTVV

binding result [2]: recognises
B12: TCR32 (TCR, V domains shown)
Valpha: ILNVEQSPQSLHVQEGDSTNFTCSFPSSNFYALHWYRWETAKSPEALFVMTLNGDEKKKGRISATLNTKEGYSYLYIKGSQPEDSATYLCAFIVHQAGTALIFGKGTTLSVSS
Vbeta: GAGVSQSPRYKVTKRGQDVALRCDPISGHVSLYWYRQALGQGPEFLTYFNYEAQQDKSGLPNDRFSAERPEGSISTLTIQRTEQRDSAMYRCASSLGLLYNEQFFGPGTRLTVL

binding result [1]: recognises
B13: TCR2 (TCR, V domains shown)
Valpha: ILNVEQSPQSLHVQEGDSTNFTCSFPSSNFYALHWYRWETAKSPEALFVMTLNGDEKKKGRISATLNTKEGYSYLYIKGSQPEDSATYLCAFSNARLMFGDGTQLVVKP
Vbeta: DTAVSQTPKYLVTQMGNDKSIKCEQNLGHDTMYWYKQDSKKFLKIMFSYNNKELIINETVPNRFSPKSPDKAHLNLHINSLELGDSAVYFCASSQEAGTGSYNEQFFGPGTRLTVL

binding result [1]: recognises
B14: TCR54 (TCR, V domains shown)
Valpha: EDQVTQSPEALRLQEGESSSLNCSYTVSGLRGLFWYRQDPGKGPEFLFTLYSAGEEKEKERLKATLTKKESFLHITAPKPEDSATYLCAVYNQAGTALIFGKGTTLSVSS
Vbeta: EAQVTQNPRYLITVTGKKLTVTCSQNMNHEYMSWYRQDPGLGLRQIYYSMNVEVTDKGDVPEGYKVSRKEKRNFPLILESPSPNQTSLYFCASSLYSTDTQYFGPGTRLTVL
